Measurements as given in US20240294604A1 (Stanford University, published 2024).
Positions count from the first letter of the chain named.

B1: BCMA#75 (receptor)
variant BCMA extracellular domain: MLPMAGQCPQNEYFDSLLYACIPCQLRCSSSTPPLACQHYCNASVTRSVEGTNA
notes: also called Clone #75; clones #49, 75-94
B2: BCMA#71 (receptor)
variant BCMA extracellular domain: MLQMAGQCSQNEYFDGLLYACIPCQLRCSSNTPPLACQRYCNASVTNSVKGTDA
notes: also called Clone #71; sBCMA variant clone 71
B3: BCMA#74 (receptor)
variant BCMA extracellular domain: B2 variant BCMA extracellular domain with S9P, N11D, N47S
notes: also called Clone #74; sBCMA variant clone 74
B4: BCMA#73 (receptor)
variant BCMA extracellular domain: B2 variant BCMA extracellular domain with Y19H, D53N
notes: also called Clone #73; clone #22
B5: BCMA#106 (receptor)
variant BCMA extracellular domain: VSQTAGQCSQNEYFDGLLHACIPCQLRCSSDIPPLACQRYCNASVTNSVKGTNA
notes: also called Clone #106; clones #106-111
B6: BCMA#95 (receptor)
variant BCMA extracellular domain: B5 variant BCMA extracellular domain with N11D, G16S, H19Y, D31N, I32T
notes: also called Clone #95
B7: BCMA#72 (receptor)
variant BCMA extracellular domain: B2 variant BCMA extracellular domain with D53N
notes: also called Clone #72; sBCMA variant clone 72

Legend:
[1] = target: T1, A Proliferation Inducing Ligand (APRIL) (human, UniProt O75888 105-250); assay: cell binding titration by flow cytometry; soluble APRIL varied to 10 nM on cells displaying the BCMA clone
T1 sequence: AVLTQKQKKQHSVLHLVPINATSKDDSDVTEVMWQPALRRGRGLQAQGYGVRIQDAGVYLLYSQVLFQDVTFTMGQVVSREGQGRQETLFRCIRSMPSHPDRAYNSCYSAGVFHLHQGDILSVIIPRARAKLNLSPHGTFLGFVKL

[2] = target: T1, A Proliferation Inducing Ligand (APRIL); assay: cell binding titration by flow cytometry; soluble APRIL varied to 10 nM on cells displaying the BCMA clone; BP is not defined in the filing
BAFF [3] = assay: cell binding titration by flow cytometry; soluble BAFF varied to 10 nM on cells displaying the BCMA clone
Chain of BAFF (soluble ligand, as listed by the source): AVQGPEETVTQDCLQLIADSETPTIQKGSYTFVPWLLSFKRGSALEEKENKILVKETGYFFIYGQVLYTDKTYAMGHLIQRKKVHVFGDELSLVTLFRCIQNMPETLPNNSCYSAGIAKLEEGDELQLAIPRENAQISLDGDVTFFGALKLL

BAFF [4] = assay: cell binding titration by flow cytometry; soluble BAFF varied to 10 nM on cells displaying the BCMA clone; B.P is not defined in the filing
BAFF [5] = assay: cell binding titration by flow cytometry; soluble BAFF varied on cells displaying the BCMA clone

| Binder | Bmax [1] [A.U.] | Kd [1] [nM] | BP [2] | Bmax (BAFF [3]) [A.U.] | Kd (BAFF [3]) [nM] | B.P (BAFF [4]) | binding result (BAFF [5]) |
| --- | --- | --- | --- | --- | --- | --- | --- |
| B1 | 7060 | ~0.016 | 441 | – | – | – | – |
| B2 | 8270 | 0.008 | 1030 | 1230 | 0.009 | 136 | – |
| B3 | 9200 | 0.007 | 1310 | 1680 | 0.009 | 186 | – |
| B4 | 5530 | 0.054 | 102 | – | – | – | no binding |
| B5 | 7910 | 0.015 | 527 | 870 | 0.028 | – | – |
| B6 | 7230 | 0.028 | 258 | – | – | – | – |
| B7 | 5860 | 0.018 | 325 | 974 | 0.008 | 121 | – |
